Experimental data taken from the supplement of paper PMC9170038.

Test system: MS2 coat protein
Assay: apparent KD of MS2 coat protein; higher = weaker reporter binding
Settings: Eterna round: R107
Method in brief: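 Designed RNA switches, transcribed on-chip from Illumina sequencing clusters, were titrated with SNAP-549-labelled MS2 coat protein from 0.7 or 1.5 nM to 3 µM in twofold steps. The solution was 100 mM Tris-HCl pH 7.5, 80 mM KCl, 4 mM MgCl2, with constant ligand or without it. Apparent KD is the median over each design's normalised cluster binding-curve fits.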

[1] = input ligand: theophylline 20 uM
[2] = input ligand: theophylline 2 mM
[3] = input ligand: tryptophan 2.4 mM

Sequence | apparent KD of MS2 coat protein (input ligand: arginine 13.2 mM) | apparent KD of MS2 coat protein [1] | apparent KD of MS2 coat protein [2] | apparent KD of MS2 coat protein (input ligand: none) | apparent KD of MS2 coat protein [3]
UAUAUAUACUCGGCCGCCACUGAGAGAGUCAUGUAAACAUGAGGAUCACCCAUGUAAUAUAUAUACAGGACCGGGAGUAUAUUAA [4.A] | 19.1 nM | 17.3 nM | 15.8 nM |  | 
GACGCAUGAGUUGGAACAGCUCAUGGGUCGCGAGGACCGGUACGGCCGCCACUCGGCUGUACAUGAGGAUCACCCAUGUCAGGGU [#1 Same State - Tryptophan A Attempt #30 (HarryS)] | 72.7 nM | 329 nM | 942 nM |  | 
GGCAAGCGAGACAUGAGGAUCACCCAUGUUCGAGGACCGGUACGGCCGCCACUCGGUGGACUCAUGGUAAAGCCGGUGAGCCAAA [AK 1 SS Trypt (A)] | 27.4 nM | 44.8 nM | 38 nM |  | 
UUGUAUAUGCGAAGGAGCGGGAAAUAUAUAUAUAUAAUCCUAACAUGAGGAUCACCCAUGUCCCAGGUAGGUCGCGCAUAUGUGG [12.G] | 34.6 nM | 65.6 nM | 68.3 nM | 58.8 nM | 54.9 nM
AUAAGUAAUGUCUCGUGUAUUAUUACAGAUACCAGACUAUCCUAUGUCCCUUGGCAGCUGGAUUACAUGAGGAUCACCCAUGUUG [#10 Exclusion-TheophyllineA] | 21.5 nM | 25.3 nM |  |  | 22 nM
AAUAAAUCACAUGAGGAUCACCCAUGUGAUACCAGCCUGGAAACAGGCCCUUGGCAGCACAUGAGGAUCACCCAUGUGCUAAAUA [TheoAX 1 #DoubleMS2 #OpenEnded] | 6.79 nM | 8.81 nM |  |  | 8.43 nM
GAUGAACUAUAUGAUACCAGACAACAUGAGGAUCACCCAUGUGUAUGUCGUCCUCUGCCUGUCCCUUGGCAGCGUAUAGUUUAUC [XTheo B #17] | 36.8 nM | 70.1 nM |  |  | 16.1 nM
CGGACAUGAGGAUCACCCAUGUACACUGAAGGAGCGUCGAGAACGACAGGUAGGUCGCAGGUUGAGGAAGGUGAUGCUCAAGAAG [Exclusion Arginine A GF4] | 25.1 nM | 71.9 nM | 57.4 nM | 44.7 nM | 50.6 nM
CAGAACAUGAGGAUCACCCAUGUCAGGGAUACCAGCUCAGACAUGGGCCCUUGGCAGCUCUGUGGCUGACGAAAGUCAGCAUCUG [#17 SameState-TheophyllineA] | 17.5 nM | 109 nM |  |  | 19.5 nM
AGCCGGAUUACGGCCGCCACUGUAGACGUGACGAAAGUCGCGUCAACAUGAGGAUCACCCAUGUACAGGACCGGGUGGUCGGGCG [Omei Tryp B SS A v5] | 74.1 nM | 247 nM | 240 nM |  | 
UUUACAUGAGGAUCACCCAUGUGCCAUGAUACCAGACAUGAAAAUGUCCCUUGGCAGCAUGAAUAAUCCUCGUCGGGAAACCGAC [Lisen] | 110 nM | 195 nM |  |  | 70.8 nM
AAGACGCCGGGAAGGAGCGCAUCCAAACCACACAUGAGGAUCACCCAUGUAUAAAUAUGCAUGCAGGUAGGUCGCCCGAUGUCCC [Orbemative] | 32.4 nM | 48.8 nM | 42.6 nM | 31.6 nM | 36.5 nM
GAUCGAAAUAACGUCUAGGAAAACUAGACGCGAGGACCGGUACGGCCGCCACUCGGGUGGCACAUGAGGAUCACCCAUGUAGAUC [#SwitchBubble 5 #GuTurnoff #MS2 3'] | 69.4 nM | 110 nM | 100 nM |  | 
GCACUACAUGAGGAUCACCCAUGUGCAGAUACCAGAGGUGUAUGCCUCCCUUGGCAGCUGAGUAGGUCUGGAGGGCUAUUGGUUU [Same State Theophylline A GF14] | 17.8 nM | 27.8 nM |  |  | 18.2 nM
ACACAUGAGGAUCACCCAUGUUGCAUAGAUACCAGAUAACGUGAGAUCCCUUGGCAGCUAACUGCAUGAACUUGACAUGCAUCAU [Same State Theophylline A 2] | 44.2 nM | 88.7 nM |  |  | 53.5 nM
CGUAUCGUAACUGAUACCAGUGUACUGACAUGAGGAUCACCCAUGUUGGGUUUUGUUGUACACCCUUGGCAGCAGAAUCGAUACG [AstrosExyTheB#6] | 52.1 nM | 68.6 nM |  |  | 62.9 nM
UCGUGUAUUUCGGAUACCAGUGAAAUCGAUACAUGAGGAUCACCCAUGUGAGAGGAUGUACACCCUUGGCAGCUGUCUGUAUCUG [cxezmullin] | 14.6 nM | 20.2 nM |  |  | 15.5 nM
UGGUACAUGAGGAUCACCCAUGUUCCAGAUACCAGUGUCCCGGUGCACCCUUGGCAGCUGGUGGUACAUGAGGAUCACCCAUGUG [Exclusion Theophylline A GF13] | 17.9 nM | 56.3 nM | 73.1 nM | 42.2 nM | 37.3 nM
UUUUAACAUGAGGAUCACCCAUGUAAUGAUACCAGAGACGAAAGUCUCCCUUGGCAGCAUAUAUCAUUACUCAUAGGAAACUAUG [Theophylline A 6] | 35.4 nM | 23.5 nM |  |  | 13.6 nM

Sequence | apparent KD of MS2 coat protein (input ligand: arginine 13.2 mM) | apparent KD of MS2 coat protein [1] | apparent KD of MS2 coat protein [2] | apparent KD of MS2 coat protein (input ligand: none) | apparent KD of MS2 coat protein [3]
UAACGGCACUGAAGGAGCGAGUUGACAAACAUGAGGAUCACCCAUGUUAUGGGUUGUUAAUCUCAGGUAGGUCGCAGUUGUCGUA [Same State Arginine B GF 20] | 129 nM | 387 nM | 511 nM | 348 nM | 365 nM
AGCUCGCAAUCCUCAGCGUCAAAGACGCGUCGAGGACCGGUACGGCCGCCACUCGACAAGAGGAUCACCCUUGUCUAAGCGAGCA [TrypAX 5 #SwitchBubble #AlternativeMS2 #MS2Late #CuTurnoff] | 78.5 nM | 355 nM | 588 nM |  | 114 nM
UACAUAUGCCGAAGGAGCGCGAGAAGCAAAGCUUCAUUCCUCACAUGAGGAUCACCCAUGUCGCAGGUAGGUCGCGGCAUAUGUU [#15 Exclusion - Arginine B] | 23.7 nM | 42 nM | 28.2 nM | 21.8 nM | 24 nM
AAUCGGACUCGUACAGCAUGUUGAGCGGAAGGAGCGGCGAAAGAGCCAGGUAGGUCGCCGCCGACAUGAGGAUCACCCAUGUACG [Orenti] | 27.3 nM | 177 nM | 258 nM | 119 nM | 110 nM
GCCGGGCCUUCGGCCGCCACUGAGAGAGUCGUGUGAACAUGAGGAUCACCCAUGUAAUAUAUAUACAGGACCGGGAGGGCCCGGC [4.V] | 12.6 nM | 17.8 nM | 14.9 nM | 16.3 nM | 10.4 nM
AGCCUCAUACAUGAGGAACACCCAUGUGAUACCAGUCAGGAAACUGACCCUUGGCAGCGCAUGAGGAUCACCCAUGCGCGAGGCA [Omei Theo A Exc A v3] | 20.4 nM | 78.2 nM | 237 nM | 63 nM | 47.7 nM
AUAAAUAAGGCGGCCGCCACUAAUAUAUUAAUAUUUUAUAUCCGACAUGAGGAUCACCCAUGUGGUAGGACCGGGCCAAUAAUUA [Same State - Tryptophan B] | 20.4 nM | 43.4 nM | 25 nM |  | 
GAUAUAUAACGAAGGAGCGGCCCUUGAUCCUCAUGAGACAUGAGGAUCACCCAUGUCUCGGGCCAGGUAGGUCGCGUUAUAUAUC [Astros-omei-mod] | 26.6 nM | 31.4 nM | 27.9 nM | 21.5 nM | 24.4 nM
GGCACCAGGAGAAGGAGCGUGAAGACAUGAGGAUCACCCAUGUAGAGGCCCGGACCGGGUUCGCAGGUAGGUCGCUCCUGGUGCC [#1 Same State - Arginine B Attempt #15 (HarryS)] | 10 nM | 17.9 nM | 23 nM | 15.6 nM | 16.9 nM
CGAGUAAGAACAAUCGAAUAACGGUUUUCGCGAGGACCGGUACGGCCGCCACUCGUGUGAAAUAACACAUGAGGAUCACCCAUGU [3'end-1] | 23.7 nM | 26.8 nM | 27.3 nM |  | 
CCUAUGCAGUCGGCCGCCACUGAGUCCUCAAUAAUAAAUUAAUAUACAUGAGGAUCACCCAUGUACAGGACCGGGACUGUAUAGG [Ex Tryptophan B 13] | 96.7 nM | 268 nM | 215 nM |  | 
UGUAUGUGAUCUGAUACCAGAGUGACGCGAAAGCGACCUGAGGAUCACCCUGGUAAAUAACUCCCUUGGCAGCAGAUCGCAUACU | 43.8 nM | 36.6 nM | 17.8 nM | 45 nM | 48.3 nM
AUACAUGAGGAUCACCCAUGUGAUGGCCGGCGAGGACCGGUACGGCCGCCACUCGUGAUCCGUCCUGAAAGCAAAGCUCUCAACA [Esraleri] | 95 nM | 85.3 nM | 303 nM |  | 
GCAUCCUAGUCGGCCGCCACUGCACGAUCAGUGGCAGAUCGUCAACAUGAGGAUCACCCAUGUAGCAGGACCGGGACUAGGAUGC [(Trp1)-(TM)''-(TM)'-(Ms2)-(Trp2)_Design3] | 18.5 nM | 21.9 nM | 20.9 nM |  | 
UGUAAUGGGAUCAACCCAUGAGAGUCUGAAGGAGCGAUCGUAAGAUCAGGUAGGUCGCAGGAGACAUGAGGAUCACCCAUGUAUA [Arg A Ex t2] | 33.3 nM | 56.6 nM | 51.1 nM | 38.7 nM | 39.5 nM
CGUUGGUGUGGAGACAUAUUGAUGACUGAAGGAGCGGGAAUAAACCCAGGUAGGUCGCAGAGAUCCACAUGAGGAUCACCCAUGU [!0.R] | 26.3 nM | 74.9 nM | 154 nM | 73.1 nM | 49.5 nM
AUUUAUUAGACGGCCGCCACUUGAAAGCGACCUCAUAAAUGGGAACAUGAGGAUCACCCAUGUAAGAGGACCGGGUCUAGUAGAU [TryptB-ms2@45] | 132 nM | 150 nM | 318 nM |  | 
UAUAUAUAUCACUAACUGUUCUUGAGGUCUCGAGGACCGGUACGGCCGCCACUCGGGCCGCCUCACAUGAGGAUCACCCAUGUCC [XTryp A #3] | 38.9 nM | 94.8 nM | 89.4 nM |  | 
ACAUGAAGAACAGCGGUGGGCGCGCUCGAUACCAGUACUUUAAAAUACCCUUGGCAGCGACAUGAGGAUCACCCAUGUGAGAUGA [XTheo A #4] | 15.3 nM | 18.5 nM |  |  | 18.5 nM
